Patent publication US9051555 (SALK INSTITUTE FOR BIOLOGICAL STUDIES, dated 2015)

Biological target: the molecule itself
Test: X-ray crystallography, homodimer in the asymmetric unit

B1: isopentenyl phosphate kinase (IPK) from Methanocaldococcus jannaschii (enzyme)
chain: MLTILKLGGSILSDKNVPYSIKWDNLERIAMEIKNALDYYKNQNKEIKLILVHGGGAFGHPVAKKYLKIEDGKKIFINMEKGFWEIQRAMRRFNNIIIDTLQSYDIPAVSIQPSSFVVFGDKLIFDTSAIKEMLKRNLVPVIHGDIVIDDKNGYRIISGDDIVPYLANELKADLILYATDVDGVLIDNKPIKRIDKNNIYKILNYLSGSNSIDVTGGMKYKIEMIRKNKCRGFVFNGNKANNIYKALLGEVEGTEIDFSE
notes: The crystal holds a homodimer, two molecules in the asymmetric unit; also called IPK-Mjannaschii; IPK-Mj
B1: binds.
